In test [1] the target is endogenous ARNT2 (HEK293T) (human (endogenous in HEK293T)) (UniProt Q9HBZ2).
Test [2] addresses ARNT2, overexpressed (human Aryl hydrocarbon Receptor Nuclear Translator 2) (human, UniProt Q9HBZ2 1-717). As to the kind of experiment: cell-based or functional assay.

Where a chain is given by its changes, count along the chain named. Names may count otherwise.

Chain of endogenous ARNT2 (HEK293T) (human (endogenous in HEK293T)) (Q9HBZ2 whole entry): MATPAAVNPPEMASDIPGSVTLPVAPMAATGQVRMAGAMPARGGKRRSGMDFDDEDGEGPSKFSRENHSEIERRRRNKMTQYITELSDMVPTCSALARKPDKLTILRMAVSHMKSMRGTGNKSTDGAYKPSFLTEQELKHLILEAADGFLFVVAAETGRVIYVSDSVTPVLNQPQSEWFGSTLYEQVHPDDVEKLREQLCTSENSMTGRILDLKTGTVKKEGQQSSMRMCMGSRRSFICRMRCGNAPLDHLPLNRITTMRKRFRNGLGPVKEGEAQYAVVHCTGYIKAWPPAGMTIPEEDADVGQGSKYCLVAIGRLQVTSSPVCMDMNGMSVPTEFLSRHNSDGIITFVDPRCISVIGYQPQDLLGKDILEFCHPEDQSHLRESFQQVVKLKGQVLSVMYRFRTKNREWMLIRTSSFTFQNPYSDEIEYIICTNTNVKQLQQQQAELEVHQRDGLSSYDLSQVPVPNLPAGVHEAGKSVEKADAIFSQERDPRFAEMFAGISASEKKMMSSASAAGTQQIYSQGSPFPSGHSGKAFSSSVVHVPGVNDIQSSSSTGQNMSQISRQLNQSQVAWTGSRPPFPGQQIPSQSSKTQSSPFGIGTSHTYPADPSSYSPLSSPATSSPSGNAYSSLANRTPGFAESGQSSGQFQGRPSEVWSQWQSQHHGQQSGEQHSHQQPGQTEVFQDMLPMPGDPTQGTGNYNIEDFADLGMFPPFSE
Chain of ARNT2, overexpressed (human Aryl hydrocarbon Receptor Nuclear Translator 2) (Q9HBZ2 whole entry): as above

B1: NPAS4.F147S-mycFlag (natural protein)
chain: MYRSTKGASKARRDQINAEIRNLKELLPLAEADKVRLSYLHIMSLACIYTRKGVFFAGGTPLAGPTGLLSAQELEDIVAALPGFLLVFTAEGKLLYLSESVSEHLGHSMVDLVAQGDSIYDIIDPADHLTVRQQLTLPSALDTDRLSRCRFNTSKSLRRQSAGNKLVLIRGRFHAHPPGAYWAGNPVFTAFCAPLEPRPRPGPGPGPGPASLFLAMFQSRHAKDLALLDISESVLIYLGFERSELLCKSWYGLLHPEDLAHASAQHYRLLAESGDIQAEMVVRLQAKTGGWAWIYCLLYSEGPEGPITANNYPISDMEAWSLRQQLNSEDTQAAYVLGTPTMLPSFPENILSQEECSSTNPLFTAALGAPRSTSFPSAPELSVVSASEELPRPSKELDFSYLTFPSGPEPSLQAELSKDLVCTPPYTPHQPGGCAFLFSLHEPFQTHLPTPSSTLQEQLTPSTATFSDQLTPSSATFPDPLTSPLQGQLTETSVRSYEDQLTPCTSTFPDQLLPSTATFPEPLGSPAHEQLTPPSTAFQAHLDSPSQTFPEQLSPNPTKTYFAQEGCSFLYEKLPPSPSSPGNGDCTLLALAQLRGPLSVDVPLVPEGLLTPEASPVKQSFFHYSEKEQNEIDRLIQQISQLAQGMDRPFSAEAGTGGLEPLGGLEPLDSNLSLSGAGPPVLSLDLKPWKCQELDFLADPDNMFLEETPVEDIFMDLSTPDPSEEWGSGDPEAEGPGGAPSPCNNLSPEDHSFLEDLATYETAFETGVSAFPYDGFTDELHQLQSQVQDSFHEDGSGGEPTF
B1 displayed an induction of BDNF exon I mRNA in 293TREX cells (quantitative real-time PCR), reduction against WT NPAS4 in test [1] of 90%.

B2: NPAS4.F147A-mycFlag (natural protein, human, UniProt Q8IUM7 1-802, looked up)
chain: B1 chain with S147A
As for B2, the “activity on the 6xCME-Luc luciferase reporter gene in HEK293T cells, percent of WT NPAS4” value in test [2] was ~65 % of wt.

Source of the values: article PMC3894988, “Human Variants in the Neuronal Basic Helix-Loop-Helix/Per-Arnt-Sim (bHLH/PAS) Transcription Factor Complex NPAS4/ARNT2 Disrupt Function” (PLoS ONE, 2014).
